The nature of the data set: self-splicing fitness, log relative to wild type (ln ratio); higher = more splicing; Tetrahymena group I intron in knt gene, E. coli kanamycin selection, DiMSum; sequences stand for … in CUCUCU…GGAGGGAAAAGUUAUCAGGCAUGCACCUGGUAGCUAGUCUUUAAACCAAUAGAUUGCAUCGGUUUAAAAGGCAAGACCGUCAAAUUGCGGGAAAGGGGUCAACAGCCGUUCAGUACCAAGUCUCAGGGGAAACUUUGAGAUGGCCUUGCAAAGGGUAUGGUAAUAAGCUGACGGACAUGGUCCUAACCACGCAGCCAAGUCCUAAGUCAACAGAUCUUCUGUUGAUAUGGAUGCAGUUCACAGACUAAAUGUCGGUCGGGGAAGAUGUAUUCUUCUCAUAAGAUAUAGUCGGACCUCUCCUUAAUGGGAGCUAGCGGAUGAAGUGAUGCAACACUGGAGCCGCUGGGAACUAAUUUGUAUGCGAAAGUAUAUUGAUUAGUUUUGGAGUACUCGUGGUCG
The procedure, abridged: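 Colonies from six replicate transformations of E. coli BL21(DE3) were pooled and amplicon-sequenced on an Illumina HiSeq 2500. The library placed an intron with all eight P1ex-region nucleotides randomised inside the knt kanamycin-resistance gene on pET-22b(+), and cells grew overnight at 37°C or 30°C on LB agar with or without 25 μg/mL kanamycin (plus 100 μg/mL carbenicillin, 50 μM IPTG, 0.2% rhamnose). Fitness is the DiMSum error-weighted combination of wild-type-normalised replicate fold changes, kanamycin versus none.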

Experimental findings from the supplement of paper PMC7877785 are described below.

± gives the uncertainty stated by the source.

Consider GCUAAGCAAUAUUACGUACG, for which the “self-splicing fitness (ln)” value is -1.67 ± 0.1 (30 °C) and -1.13 ± 0.1 (37 °C).

For CUCCAGCAAUAUUACGGGUC, the “self-splicing fitness (ln)” value is, setting by setting: (30 °C) -3.88 ± 0.24; (37 °C) -2.2 ± 0.22.

Turning to AAAAAGCAAUAUUACGCGAG, the “self-splicing fitness (ln)” value is -0.943 ± 0.085 (30 °C) and -1.06 ± 0.11 (37 °C).

As to ACUAAGCAAUAUUACGGUGA, the “self-splicing fitness (ln)” value is -1.54 ± 0.093 (30 °C) and -0.619 ± 0.13 (37 °C).

Turning to GUAAAGCAAUAUUACGUGUG, the “self-splicing fitness (ln)” value is -1.34 ± 0.063 (30 °C) and -1 ± 0.088 (37 °C).

For AUGCAGCAAUAUUACGUCGA, the “self-splicing fitness (ln)” value runs as follows: (30 °C) -1.61 ± 0.09; (37 °C) -0.738 ± 0.11.

Turning to CGUCAGCAAUAUUACGGUCA, the “self-splicing fitness (ln)” value runs as follows: (30 °C) -0.717 ± 0.08; (37 °C) 0.201 ± 0.1.

With CCUCAGCAAUAUUACGUCUC, the “self-splicing fitness (ln)” value (30 °C) was -3.73 ± 0.24.

As for UUGUAGCAAUAUUACGAUGU, the “self-splicing fitness (ln)” value is -3.86 ± 0.29 (30 °C) and -0.334 ± 0.12 (37 °C).

With CUCUAGCAAUAUUACGCUUG, the “self-splicing fitness (ln)” value is, setting by setting: (30 °C) -3.57 ± 0.24; (37 °C) -3.45 ± 0.42.

Consider CACGAGCAAUAUUACGGUCU, for which the “self-splicing fitness (ln)” value is -3.44 ± 0.19 (30 °C) and -1.73 ± 0.16 (37 °C).

As to UGACAGCAAUAUUACGUUUC, the “self-splicing fitness (ln)” value is -1.65 ± 0.29 (30 °C) and -1.5 ± 0.33 (37 °C).

As for AAGCAGCAAUAUUACGGAUA, the “self-splicing fitness (ln)” value is -2.22 ± 0.2 (30 °C) and -1.72 ± 0.15 (37 °C).

On to CGAUAGCAAUAUUACGGGUC, for which the “self-splicing fitness (ln)” value (30 °C) was -4.07 ± 0.46 and the “self-splicing fitness (ln)” value (37 °C) is -2.46 ± 0.3.

As to UAGAAGCAAUAUUACGUGCC, the “self-splicing fitness (ln)” value reads like this: (30 °C) -2.13 ± 0.22; (37 °C) -0.962 ± 0.19.

As to CCGGAGCAAUAUUACGUAGU, the “self-splicing fitness (ln)” value runs as follows: (30 °C) -4.17 ± 0.25; (37 °C) -3.22 ± 0.22.

As for CCCGAGCAAUAUUACGUGCG, the “self-splicing fitness (ln)” value by setting is: (30 °C) -4.04 ± 0.21; (37 °C) -2.82 ± 0.21.

Regarding UUUUAGCAAUAUUACGUGUU, the “self-splicing fitness (ln)” value reads like this: (30 °C) -4.5 ± 0.46; (37 °C) -3.09 ± 0.24.

On to CGGUAGCAAUAUUACGAUAC, for which, where the note is “30 °C”, the “self-splicing fitness (ln)” value is -2.53 ± 0.22.

Take CUGAAGCAAUAUUACGGCCG: the “self-splicing fitness (ln)” value is -0.134 ± 0.2 (30 °C) and 0.451 ± 0.27 (37 °C).

As for GAAUAGCAAUAUUACGGCGA, the “self-splicing fitness (ln)” value was -1.11 ± 0.11 (30 °C) and -0.3 ± 0.11 (37 °C).

Regarding ACACAGCAAUAUUACGAAUA, the “self-splicing fitness (ln)” value runs as follows: (30 °C) -2.21 ± 0.13; (37 °C) -1.6 ± 0.11.

As to GAAUAGCAAUAUUACGCAAU, the “self-splicing fitness (ln)” value by setting is: (30 °C) -2.31 ± 0.11; (37 °C) -0.898 ± 0.15.

Take UUACAGCAAUAUUACGUAGU: the “self-splicing fitness (ln)” value (30 °C) was -2.7 ± 0.15 and the “self-splicing fitness (ln)” value (37 °C) is -3.5 ± 0.33.

Regarding AUCCAGCAAUAUUACGAGCG, the “self-splicing fitness (ln)” value (30 °C) was -2.01 ± 0.11 and the “self-splicing fitness (ln)” value (37 °C) is -1.24 ± 0.12.

Take UUAGAGCAAUAUUACGAGGG: the “self-splicing fitness (ln)” value (37 °C) was -2.64 ± 0.44.

Regarding ACUAAGCAAUAUUACGCGCG, the “self-splicing fitness (ln)” value was -0.732 ± 0.096 (30 °C) and -0.0128 ± 0.13 (37 °C).

In the case of CGGGAGCAAUAUUACGGUCU, the “self-splicing fitness (ln)” value runs as follows: (30 °C) -2.67 ± 0.29; (37 °C) -0.781 ± 0.45.

As to ACCGAGCAAUAUUACGGGUU, the “self-splicing fitness (ln)” value is -2.85 ± 0.12 (30 °C) and -2.54 ± 0.18 (37 °C).

As for GUCGAGCAAUAUUACGUGCC, the “self-splicing fitness (ln)” value (30 °C) is -2.63 ± 0.29.

Consider UGGUAGCAAUAUUACGGGAC, for which the “self-splicing fitness (ln)” value (37 °C) was -2.89 ± 0.27.

On to GAUAAGCAAUAUUACGAGGA, for which the “self-splicing fitness (ln)” value was -2.86 ± 0.29 (30 °C) and -2.12 ± 0.27 (37 °C).

Take GAGAAGCAAUAUUACGCAAG: the “self-splicing fitness (ln)” value by setting is: (30 °C) -1.6 ± 0.2; (37 °C) -0.212 ± 0.21.

Regarding CAACAGCAAUAUUACGGGAA, the “self-splicing fitness (ln)” value was -2.48 ± 0.16 (30 °C) and -2.04 ± 0.14 (37 °C).

UUGGAGCAAUAUUACGGCGA: where the note is “30 °C”, the “self-splicing fitness (ln)” value is -1.32 ± 0.48.

For the sequence AUCUAGCAAUAUUACGAAUC, the “self-splicing fitness (ln)” value runs as follows: (30 °C) -4.05 ± 0.36; (37 °C) -3.15 ± 0.27.

As for GACUAGCAAUAUUACGGCUA, the “self-splicing fitness (ln)” value was -2.4 ± 0.17 (30 °C) and -0.921 ± 0.12 (37 °C).

In the case of AAUGAGCAAUAUUACGCCCU, the “self-splicing fitness (ln)” value (30 °C) was -1.32 ± 0.12 and the “self-splicing fitness (ln)” value (37 °C) was -1.16 ± 0.17.

On to CAUUAGCAAUAUUACGUAAC, for which the “self-splicing fitness (ln)” value (30 °C) was -3.01 ± 0.26 and the “self-splicing fitness (ln)” value (37 °C) is -2.14 ± 0.25.

With AAUAAGCAAUAUUACGGAGA, the “self-splicing fitness (ln)” value (30 °C) was -2.61 ± 0.3 and the “self-splicing fitness (ln)” value (37 °C) was -1.76 ± 0.36.
